From the supplement of paper PMC5998384 come the findings set out here.

Data set [1] deals with HeLa Kyoto. Nature of the data set: melting temperature (median over replicates), in situ; higher = more thermally stable.
Data set [2] deals with HeLa Kyoto. The data set is described as follows: thermal stability score vs G1/S (z-score of summed log2 fold changes over temperatures); higher = more thermally stable than in G1/S.
For data set [3], the system named is HeLa Kyoto. Nature of the data set: solubility in G1/S (NP-40 vs SDS abundance) (log2 ratio); higher = more soluble. The following applies: cell cycle stage: G1/S.
The test system of data set [4] is HeLa Kyoto. The data set is described as follows: solubility change mitosis vs G1/S (difference of NP-40 vs SDS log2 ratios) (log2 ratio difference); higher = more soluble in mitosis.
Where [5] appears, read: cell cycle stage: early G1 (4.5 h after nocodazole release).
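Throughout, for melting temperature (median over replicates), in situ: HeLa Kyoto cells synchronized by double thymidine or nocodazole block, proteins quantified by TMT10plex mass spectrometry, three independent biological replicates.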
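Throughout, for solubility change mitosis vs G1/S (difference of NP-40 vs SDS log2 ratios): synchronized HeLa Kyoto cells (double thymidine block for G1/S, nocodazole release for mitosis), protein amounts in NP-40 versus SDS lysates quantified by mass spectrometry, three biological replicates.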
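Throughout, for solubility in G1/S (NP-40 vs SDS abundance): HeLa Kyoto cells arrested at G1/S by double thymidine block, proteins quantified by TMT10plex mass spectrometry in mild NP-40 versus SDS extracts, three biological replicates.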
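Throughout, for thermal stability score vs G1/S (z-score of summed log2 fold changes over temperatures): synchronized HeLa Kyoto cells, proteins quantified by TMT10plex mass spectrometry, three biological replicates, mitosis taken 0.5 h after nocodazole release, G1/S directly after double thymidine block.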

Turning to “MPDENIFLFVPNLIGYARIVFAIISFYFMPCCPLTASSFYLLSGLLDAFDGHAARALNQGTRFGAMLDMLTDRCSTMCLLVNLALLYPGATLFFQISMSLDVASHWLHLHSSVVRGSESHKMIDLSGNPVLRIYYTSRPALFTLCAGNELFYCLLYLFHFSEGPLVGSVGLFRMGLWVTAPIALLKSLISVIHLITAARNMAALDAADRAKKK [CDIPT]”, the melting temperature in data set [1] (cell cycle stage: G1/S) turned out to be 54.7 °C; in data set [1] (cell cycle stage: mitosis), 59.4 °C. Besides, the thermal stability score is -2.08 in data set [2] (setting [5]) and -1.66 in data set [2] (cell cycle stage: mitosis). The “solubility in G1/S (log2)” value in data set [3] was -0.0899. The “solubility change mitosis (log2)” value in data set [4] is -0.0289.

With “MPEINTNHLDKQQVQLLAEMCILIDENDNKIGAETKKNCHLNENIEKGLLHRAFSVFLFNTENKLLLQQRSDAKITFPGCFTNTCCSHPLSNPAELEESDALGVRRAAQRRLKAELGIPLEEVPPEEINYLTRIHYKAQSDGIWGEHEIDYILLVRKNVTLNPDPNEIKSYCYVSKEELKELLKKAASGEIKITPWFKIIAATFLFKWWDNLNHLNQFVDHEKIYRM [IDI1]”, the figures for the melting temperature in data set [1] (cell cycle stage: G1/S) and in data set [1] (cell cycle stage: mitosis) were 54.1 °C and 53.4 °C, respectively. In addition, the values for the thermal stability score in data set [2] (setting [5]) and in data set [2] (cell cycle stage: mitosis) were 0.472 and -0.519, respectively. In data set [3], the “solubility in G1/S (log2)” value was found to be 0.145. In addition, the “solubility change mitosis (log2)” value in data set [4] worked out at 0.0595.

“MPEIVDTCSLASPASVCRTKHLHLRCSVDFTRRTLTGTAALTVQSQEDNLRSLVLDTKDLTIEKVVINGQEVKYALGERQSYKGSPMEISLPIALSKNQEIVIEISFETSPKSSALQWLTPEQTSGKEHPYLFSQCQAIHCRAILPCQDTPSVKLTYTAEVSVPKELVALMSAIRDGETPDPEDPSRKIYKFIQKVPIPCYLIALVVGALESRQIGPRTLVWSEKEQVEKSAYEFSETESMLKIAEDLGGPYVWGQYDLLVLPPSFPYGGMENPCLTFVTPTLLAGDKSLSNVIAHEISHSWTGNLVTNKTWDHFWLNEGHTVYLERHICGRLFGEKFRHFNALGGWGELQNSVKTFGETHPFTKLVVDLTDIDPDVAYSSVPYEKGFALLFYLEQLLGGPEIFLGFLKAYVEKFSYKSITTDDWKDFLYSYFKDKVDVLNQVDWNAWLYSPGLPPIKPNYDMTLTNACIALSQRWITAKEDDLNSFNATDLKDLSSHQLNEFLAQTLQRAPLPLGHIKRMQEVYNFNAINNSEIRFRWLRLCIQSKWEDAIPLALKMATEQGRMKFTRPLFKDLAAFDKSHDQAVRTYQEHKASMHPVTAMLVGKDLKVD [LTA4H]”: the melting temperature in data set [1] (cell cycle stage: G1/S) and in data set [1] (cell cycle stage: mitosis) was 53 °C in each case. The thermal stability score in data set [2] (setting [5]) was 1.7; in data set [2] (cell cycle stage: mitosis), 0.372. In data set [3], the “solubility in G1/S (log2)” value amounted to 0.0608. For the same sequence, the “solubility change mitosis (log2)” value in data set [4] was -0.173.

“MPENVAPRSGATAGAAGGRGKGAYQDRDKPAQIRFSNISAAKAVADAIRTSLGPKGMDKMIQDGKGDVTITNDGATILKQMQVLHPAARMLVELSKAQDIEAGDGTTSVVIIAGSLLDSCTKLLQKGIHPTIISESFQKALEKGIEILTDMSRPVELSDRETLLNSATTSLNSKVVSQYSSLLSPMSVNAVMKVIDPATATSVDLRDIKIVKKLGGTIDDCELVEGLVLTQKVSNSGITRVEKAKIGLIQFCLSAPKTDMDNQIVVSDYAQMDRVLREERAYILNLVKQIKKTGCNVLLIQKSILRDALSDLALHFLNKMKIMVIKDIEREDIEFICKTIGTKPVAHIDQFTADMLGSAELAEEVNLNGSGKLLKITGCASPGKTVTIVVRGSNKLVIEEAERSIHDALCVIRCLVKKRALIAGGGAPEIELALRLTEYSRTLSGMESYCVRAFADAMEVIPSTLAENAGLNPISTVTELRNRHAQGEKTAGINVRKGGISNILEELVVQPLLVSVSALTLATETVRSILKIDDVVNTR [CCT4]”: the melting temperature is 53.6 °C in data set [1] (cell cycle stage: G1/S) and 53.1 °C in data set [1] (cell cycle stage: mitosis). Further, the thermal stability score was -1.23 in data set [2] (setting [5]) and -2.24 in data set [2] (cell cycle stage: mitosis). The “solubility in G1/S (log2)” value in data set [3] came out at 0.192. In data set [4], the “solubility change mitosis (log2)” value was -0.141.

With “MPGETEEPRPPEQQDQEGGEAAKAAPEEPQQRPPEAVAAAPAGTTSSRVLRGGRDRGRAAAAAAAAAVSRRRKAEYPRRRRSSPSARPPDVPGQQPQAAKSPSPVQGKKSPRLLCIEKVTTDKDPKEEKEEEDDSALPQEVSIAASRPSRGWRSSRTSVSRHRDTENTRSSRSKTGSLQLICKSEPNTDQLDYDVGEEHQSPGGISSEEEEEEEEEMLISEEEIPFKDDPRDETYKPHLERETPKPRRKSGKVKEEKEKKEIKVEVEVEVKEEENEIREDEEPPRKRGRRRKDDKSPRLPKRRKKPPIQYVRCEMEGCGTVLAHPRYLQHHIKYQHLLKKKYVCPHPSCGRLFRLQKQLLRHAKHHTDQRDYICEYCARAFKSSHNLAVHRMIHTGEKPLQCEICGFTCRQKASLNWHMKKHDADSFYQFSCNICGKKFEKKDSVVAHKAKSHPEVLIAEALAANAGALITSTDILGTNPESLTQPSDGQGLPLLPEPLGNSTSGECLLLEAEGMSKSYCSGTERVSLMADGKIFVGSGSSGGTEGLVMNSDILGATTEVLIEDSDSAGP [ZFP91]”, the melting temperature amounted to 51.9 °C in data set [1] (cell cycle stage: G1/S) and 53.2 °C in data set [1] (cell cycle stage: mitosis). The figures for the thermal stability score in data set [2] (setting [5]) and in data set [2] (cell cycle stage: mitosis) were 2.06 and 1.42, respectively. Further, in data set [3], the “solubility in G1/S (log2)” value is -0.401. Moreover, in data set [4], the “solubility change mitosis (log2)” value came out at 0.0732.

Consider “MPGKLKVKIVAGRHLPVMDRASDLTDAFVEVKFGNTTFKTDVYLKSLNPQWNSEWFKFEVDDEDLQDEPLQITVLDHDTYSANDAIGKVYIDIDPLLYSEAATVISGWFPIYDTIHGIRGEINVVVKVDLFNDLNRFRQSSCGVKFFCTTSIPKCYRAVIIHGFVEELVVNEDPEYQWIDRIRTPRASNEARQRLISLMSGELQRKIGLKVLEMRGNAVVGYLQCFDLEGESGLVVRAIGTACTLDKLSSPAAFLPACNSPSKEMKEIPFNEDPNPNTHSSGPSTPLKNQTYSFSPSKSYSRQSSSSDTDLSLTPKTGMGSGSAGKEGGPFKALLRQQTQSALEQREFPFFTLTAFPPGFLVHVGGVVSARSVKLLDRIHNPDEPETRDAWWAEIRQEIKSHAKALGCHAVVGYSESTSICEEVCILSASGTAAVLNPRFLQDGTVEGCLEQRLEENLPTRCGFCHIPYDELNMPFPAHLTYCYNCRKQKVPDVLFTTIDLPTDATVIGKGCLIQARLCRLKKKAQAEANATAISNLLPFMEYEVHTQLMNKLKLKGMNALFGLRIQITVGENMLMGLASATGVYLAALPTPGGIQIAGKTPNDGSYEQHISHMQKKINDTIAKNKELYEINPPEISEEIIGSPIPEPRQRSRLLRSQSESSDEVTELDLSHGKKDAFVLEIDDTDAMEDVHSLLTDVPPPSGFYSCNTEIMPGINNWTSEIQMFTSVRVIRLSSLNLTNQALNKNFNDLCENLLKSLYFKLRSMIPCCLCHVNFTVSLPEDELIQVTVTAVAITFDKNQALQTTKTPVEKSLQRASTDNEELLQFPLELCSDSLPSHPFPPAKAMTVEKASPVGDGNFRNRSAPPCANSTVGVVKMTPLSFIPGAKITKYLGIINMFFIRETTSLREEGGVSGFLHAFIAEVFAMVRAHVAALGGNAVVSYIMKQCVFMENPNKNQAQCLINVSGDAVVFVRESDLEVVSSQQPTTNCQSSCTEGEVTT [C2CD5]”, for which the melting temperature in data set [1] (cell cycle stage: G1/S) was 52.2 °C; in data set [1] (cell cycle stage: mitosis) it was 52.3 °C. Also, the thermal stability score in data set [2] (setting [5]) is 0.25; in data set [2] (cell cycle stage: mitosis), -0.02. The “solubility in G1/S (log2)” value in data set [3] came to 0.000995. For the same sequence, the “solubility change mitosis (log2)” value in data set [4] is -0.067.
